The data set concerns the molecule itself. In words: crystal structure; lipidic cubic phase (monoolein with 10% cholesterol), without any antibody Fab fragment; 16 °C; 100 mM Tris pH 8.5, 100 mM sodium malonate, 30% PEG 400, 2.5% MPD; 2.6 Å.

B1: CLC-ec1 QQQ mutant (E148Q/E203Q/E113Q) (natural protein)
chain: MKTDTPSLETPQAARLRRRQLIRQLLERDKTPLAILFMAAVVGTLVGLAAVAFDKGVAWLQNQRMGALVHTADNYPLLLTVAFLCSAVLAMFGYFLVRKYAPEAGGSGIPEIQGALEDQRPVRWWRVLPVKFFGGLGTLGGGMVLGRQGPTVQIGGNIGRMVLDIFRLKGDEARHTLLATGAAAGLAAAFNAPLAGILFIIEQMRPQFRYTLISIKAVFIGVIMSTIMYRIFNHEVALIDVGKLSDAPLNTLWLYLILGIIFGIFGPIFNKWVLGMQDLLHRVHGGNITKWVLMGGAIGGLCGLLGFVAPATSGGGFNLIPIATAGNFSMGMLVFIFVARVITTLLCFSSGAPGGIFAPMLALGTVLGTAFGMVAVELFPQYHLEAGTFAIAGMGALLAASIRAPLTGIILVLEMTDNYQLILPMIITGLGATLLAQFTGGKPLYSAILARTLAKQEAEQLARSK
notes: CLC-ec1, prokaryotic CLC Cl-/H+ exchange transporter, with glutamines in place of Gluex (E148), Gluin (E203) and E113; The final crystallographic model holds all residues except those of helix A (no density); PDB 1ots is the wild-type parent used as search model; also called QQQ protein
For B1, the binding result is “binds”.

These data come from article doi:10.1101/857136, “Structural characterization of an intermediate reveals a unified mechanism for the CLC Cl^−/H^+ transport cycle” (bioRxiv, 2019).
